Target: interleukin-4 receptor (IL-4R) (UniProt P24394)
Test: cell-based or functional assay

Sequence of UniProt P24394 (P24394 26-825 limits assumed): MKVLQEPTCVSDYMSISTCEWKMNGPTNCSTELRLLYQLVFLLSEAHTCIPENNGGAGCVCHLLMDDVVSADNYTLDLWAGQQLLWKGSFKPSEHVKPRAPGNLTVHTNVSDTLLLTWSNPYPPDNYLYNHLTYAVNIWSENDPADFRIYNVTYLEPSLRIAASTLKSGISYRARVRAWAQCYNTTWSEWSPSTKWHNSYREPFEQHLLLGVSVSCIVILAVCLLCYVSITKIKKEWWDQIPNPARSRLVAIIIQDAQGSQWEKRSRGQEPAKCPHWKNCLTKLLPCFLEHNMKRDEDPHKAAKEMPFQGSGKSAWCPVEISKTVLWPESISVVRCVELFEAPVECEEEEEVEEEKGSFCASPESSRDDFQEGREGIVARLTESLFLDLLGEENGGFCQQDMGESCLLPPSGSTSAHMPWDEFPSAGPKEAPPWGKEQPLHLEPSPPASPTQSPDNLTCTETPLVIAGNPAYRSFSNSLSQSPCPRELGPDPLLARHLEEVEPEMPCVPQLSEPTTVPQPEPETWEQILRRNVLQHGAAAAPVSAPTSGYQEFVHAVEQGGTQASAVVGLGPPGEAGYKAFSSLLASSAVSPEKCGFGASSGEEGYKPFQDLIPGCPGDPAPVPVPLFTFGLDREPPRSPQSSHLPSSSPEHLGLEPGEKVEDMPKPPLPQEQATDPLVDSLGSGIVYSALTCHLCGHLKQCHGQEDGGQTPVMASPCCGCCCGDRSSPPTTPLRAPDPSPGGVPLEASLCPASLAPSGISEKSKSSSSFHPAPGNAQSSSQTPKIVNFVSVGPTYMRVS

B1: anti-IL-4R:anti-CD63 conjugate (streptavidin-conjugated anti-IL-4R antibody combined 1:1 with biotinylated anti-CD63 antibody MEM-259) (protein, part only; not given: anti-CD63 antibody, constant regions, part only)
VH: EVQLVESGGGVVQPGRSLRLSCVASGFTFSDYGMHWVRQAPGKGLEWVAVIWYDGSIKYFRDSVKGRFTISRDNSKNTLYLQMNSLRVEDTAHYYCAKESSSWYFYHGLDVWGQGTMVTVSS
VL: EIVMTQSPLSLPVSPGEPASISCRSNQSLLHSNGNNYLAWYLQKPGQSPHLLIYLGSNRASGVPDRFSGSGSGTDFTLKISRVEAGDVGTYFCMQSLQAPPFTFGPGTKVEIKR
modifications: antibody is streptavidin-conjugated (site not stated)
  attenuation of IL-4R activity relative to the control constructs (STAT6-luciferase reporter): > 10%
